# Measurements as given in US20220315554A1, “COMPOUNDS COMPRISING A […] LIGAND AND USE THEREOF” (priority 2019, published 2022).
# How the values were obtained:
# [1] = molecular target: Cathepsin V (Homo sapiens (Human)) (UniProt O60911)
# [2] = molecular target: Matrix metalloprotease1 (Homo sapiens (Human)) (UniProt P03956)
# [3] = molecular target: T1, Renin (Homo sapiens (Human)) (UniProt P00797)
# T1 sequence: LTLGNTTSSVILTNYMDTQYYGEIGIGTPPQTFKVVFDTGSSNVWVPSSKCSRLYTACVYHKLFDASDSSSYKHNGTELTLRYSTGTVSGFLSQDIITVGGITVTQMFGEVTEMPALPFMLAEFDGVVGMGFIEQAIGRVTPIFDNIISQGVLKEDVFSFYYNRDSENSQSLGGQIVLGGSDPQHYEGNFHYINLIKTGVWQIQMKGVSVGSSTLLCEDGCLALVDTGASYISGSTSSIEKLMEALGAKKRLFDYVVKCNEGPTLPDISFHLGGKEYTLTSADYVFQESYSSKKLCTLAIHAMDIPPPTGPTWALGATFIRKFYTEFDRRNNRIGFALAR
# [4] = molecular target: Caspase-9 (Homo sapiens (Human)) (UniProt P55211)
# Chain of Caspase-9 (Homo sapiens (Human)) (P55211 whole entry): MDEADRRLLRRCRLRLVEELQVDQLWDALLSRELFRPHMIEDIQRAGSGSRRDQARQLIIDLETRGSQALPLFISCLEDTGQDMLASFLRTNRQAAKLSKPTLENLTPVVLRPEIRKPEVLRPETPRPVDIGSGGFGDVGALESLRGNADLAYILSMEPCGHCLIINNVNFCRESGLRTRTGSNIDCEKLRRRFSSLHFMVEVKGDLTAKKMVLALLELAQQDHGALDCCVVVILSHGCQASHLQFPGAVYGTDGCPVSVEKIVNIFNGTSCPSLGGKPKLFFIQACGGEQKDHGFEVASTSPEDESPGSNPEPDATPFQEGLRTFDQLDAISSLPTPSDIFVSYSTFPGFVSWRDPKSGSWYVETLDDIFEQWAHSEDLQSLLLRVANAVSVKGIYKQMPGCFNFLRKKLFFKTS
# [5] = molecular target: T2, Caspase-3 (Homo sapiens (Human)) (UniProt P42574)
# T2 sequence: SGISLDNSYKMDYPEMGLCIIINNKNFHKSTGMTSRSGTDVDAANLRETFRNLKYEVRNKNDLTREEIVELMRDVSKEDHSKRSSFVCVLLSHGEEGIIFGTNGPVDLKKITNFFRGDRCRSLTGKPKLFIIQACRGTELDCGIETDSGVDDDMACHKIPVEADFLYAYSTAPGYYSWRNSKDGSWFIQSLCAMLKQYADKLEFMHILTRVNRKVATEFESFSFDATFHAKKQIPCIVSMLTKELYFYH
# [6] = molecular target: Ubiquitin carboxy-terminal hydrolase 5 (Homo sapiens (Human)) (UniProt P45974)
# Chain of Ubiquitin carboxy-terminal hydrolase 5 (Homo sapiens (Human)) (P45974 whole entry): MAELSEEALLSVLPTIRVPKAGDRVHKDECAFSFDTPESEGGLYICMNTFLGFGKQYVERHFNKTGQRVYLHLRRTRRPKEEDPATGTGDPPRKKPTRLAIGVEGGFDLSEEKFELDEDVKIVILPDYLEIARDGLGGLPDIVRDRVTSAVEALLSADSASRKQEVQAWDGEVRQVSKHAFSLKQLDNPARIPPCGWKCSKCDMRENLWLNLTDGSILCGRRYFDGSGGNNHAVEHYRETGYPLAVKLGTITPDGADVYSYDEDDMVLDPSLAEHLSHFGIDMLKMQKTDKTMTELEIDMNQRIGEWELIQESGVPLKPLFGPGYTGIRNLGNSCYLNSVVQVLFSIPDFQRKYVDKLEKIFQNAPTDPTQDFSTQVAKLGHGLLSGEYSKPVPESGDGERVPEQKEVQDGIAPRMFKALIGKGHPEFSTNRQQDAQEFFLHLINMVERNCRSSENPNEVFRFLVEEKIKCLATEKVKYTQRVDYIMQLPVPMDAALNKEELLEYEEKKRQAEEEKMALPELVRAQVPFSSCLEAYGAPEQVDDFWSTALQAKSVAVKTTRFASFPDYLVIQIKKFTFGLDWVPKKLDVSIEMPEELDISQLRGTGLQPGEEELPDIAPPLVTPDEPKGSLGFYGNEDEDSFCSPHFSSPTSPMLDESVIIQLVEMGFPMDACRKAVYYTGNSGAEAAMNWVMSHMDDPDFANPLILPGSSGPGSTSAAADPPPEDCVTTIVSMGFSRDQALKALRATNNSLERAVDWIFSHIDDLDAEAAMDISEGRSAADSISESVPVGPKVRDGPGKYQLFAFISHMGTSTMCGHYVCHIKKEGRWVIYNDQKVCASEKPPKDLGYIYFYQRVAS
# [7] = molecular target: DPP8 (Homo sapiens (Human)) (UniProt Q6V1X1)
# [8] = molecular target: Ubiquitin carboxy-terminal hydrolase 14 (Homo sapiens (Human)) (UniProt P54578)
# [9] = molecular target: Caspase-8 (Homo sapiens (Human)) (UniProt Q14790)
# Chain of Caspase-8 (Homo sapiens (Human)) (Q14790 217-479 limits assumed): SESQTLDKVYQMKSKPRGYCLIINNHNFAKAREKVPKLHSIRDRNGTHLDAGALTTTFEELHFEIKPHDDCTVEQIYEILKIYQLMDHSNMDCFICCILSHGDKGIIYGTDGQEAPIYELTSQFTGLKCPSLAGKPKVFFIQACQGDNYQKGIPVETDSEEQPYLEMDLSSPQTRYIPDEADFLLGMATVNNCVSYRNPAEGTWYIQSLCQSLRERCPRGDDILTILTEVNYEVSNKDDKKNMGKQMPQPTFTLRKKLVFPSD
# [10] = molecular target: Ubiquitin carboxy-terminal hydrolase 10 (Homo sapiens (Human)) (UniProt Q14694)
# Chain of Ubiquitin carboxy-terminal hydrolase 10 (Homo sapiens (Human)) (Q14694 whole entry): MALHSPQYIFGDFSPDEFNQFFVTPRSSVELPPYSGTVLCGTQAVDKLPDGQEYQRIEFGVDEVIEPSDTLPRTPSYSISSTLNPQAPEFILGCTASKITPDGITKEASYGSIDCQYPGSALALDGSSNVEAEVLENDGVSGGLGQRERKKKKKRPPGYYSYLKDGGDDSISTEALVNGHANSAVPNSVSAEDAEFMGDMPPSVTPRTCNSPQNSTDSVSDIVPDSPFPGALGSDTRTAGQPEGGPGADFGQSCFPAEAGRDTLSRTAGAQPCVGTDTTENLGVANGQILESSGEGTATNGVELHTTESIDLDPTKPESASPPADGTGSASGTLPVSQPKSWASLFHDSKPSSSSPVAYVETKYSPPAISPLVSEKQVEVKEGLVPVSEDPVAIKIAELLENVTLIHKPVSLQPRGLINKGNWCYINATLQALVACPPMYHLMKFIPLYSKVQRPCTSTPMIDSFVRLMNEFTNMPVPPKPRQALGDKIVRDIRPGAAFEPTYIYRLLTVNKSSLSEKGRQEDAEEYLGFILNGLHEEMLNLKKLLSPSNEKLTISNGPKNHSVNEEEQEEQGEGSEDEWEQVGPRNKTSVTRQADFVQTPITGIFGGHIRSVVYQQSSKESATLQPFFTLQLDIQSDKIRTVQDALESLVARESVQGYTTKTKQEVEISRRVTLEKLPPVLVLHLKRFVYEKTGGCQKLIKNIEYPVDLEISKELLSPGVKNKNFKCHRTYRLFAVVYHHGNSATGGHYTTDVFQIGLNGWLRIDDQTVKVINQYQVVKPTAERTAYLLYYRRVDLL
# [11] = molecular target: DPP7 (Homo sapiens (Human)) (UniProt Q9UHL4)
# [12] = molecular target: Cathepsin L (Homo sapiens (Human)) (UniProt P07711)
# [13] = molecular target: T3, A20 (Homo sapiens (Human)) (UniProt P21580)
# T3 sequence: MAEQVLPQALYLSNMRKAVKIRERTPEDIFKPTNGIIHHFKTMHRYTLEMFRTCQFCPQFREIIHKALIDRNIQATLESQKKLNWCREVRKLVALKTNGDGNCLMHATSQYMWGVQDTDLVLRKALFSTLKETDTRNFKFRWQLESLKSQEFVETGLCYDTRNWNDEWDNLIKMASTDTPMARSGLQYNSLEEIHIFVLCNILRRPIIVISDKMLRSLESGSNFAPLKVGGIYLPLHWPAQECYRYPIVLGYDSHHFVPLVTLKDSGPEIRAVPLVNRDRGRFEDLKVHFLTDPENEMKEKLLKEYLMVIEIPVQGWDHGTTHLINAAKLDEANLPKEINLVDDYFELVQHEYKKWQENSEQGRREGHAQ
# [14] = molecular target: Cathepsin B (Homo sapiens (Human)) (UniProt P07858)
# [15] = molecular target: Matrix metalloprotease 9 (mutant Q279R) (Homo sapiens (Human)) (UniProt P14780)
# [16] = molecular target: Cathepsin S (Homo sapiens (Human)) (UniProt P25774)
# [17] = molecular target: T4, Deubiquitinase OTUD6B (Homo sapiens (Human)) (UniProt Q8N6M0)
# T4 sequence: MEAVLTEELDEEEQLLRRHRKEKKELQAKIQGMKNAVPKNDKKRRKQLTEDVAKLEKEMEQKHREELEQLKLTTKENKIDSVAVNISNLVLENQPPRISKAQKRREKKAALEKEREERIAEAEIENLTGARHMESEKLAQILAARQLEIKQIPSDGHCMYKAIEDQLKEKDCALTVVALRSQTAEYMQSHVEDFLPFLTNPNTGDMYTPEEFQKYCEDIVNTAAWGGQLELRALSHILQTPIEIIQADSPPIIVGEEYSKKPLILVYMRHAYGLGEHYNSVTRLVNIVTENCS
# [18] = molecular target: FAP (Homo sapiens (Human)) (UniProt Q12884)
# Chain of FAP (Homo sapiens (Human)) (Q12884 26-760 limits assumed): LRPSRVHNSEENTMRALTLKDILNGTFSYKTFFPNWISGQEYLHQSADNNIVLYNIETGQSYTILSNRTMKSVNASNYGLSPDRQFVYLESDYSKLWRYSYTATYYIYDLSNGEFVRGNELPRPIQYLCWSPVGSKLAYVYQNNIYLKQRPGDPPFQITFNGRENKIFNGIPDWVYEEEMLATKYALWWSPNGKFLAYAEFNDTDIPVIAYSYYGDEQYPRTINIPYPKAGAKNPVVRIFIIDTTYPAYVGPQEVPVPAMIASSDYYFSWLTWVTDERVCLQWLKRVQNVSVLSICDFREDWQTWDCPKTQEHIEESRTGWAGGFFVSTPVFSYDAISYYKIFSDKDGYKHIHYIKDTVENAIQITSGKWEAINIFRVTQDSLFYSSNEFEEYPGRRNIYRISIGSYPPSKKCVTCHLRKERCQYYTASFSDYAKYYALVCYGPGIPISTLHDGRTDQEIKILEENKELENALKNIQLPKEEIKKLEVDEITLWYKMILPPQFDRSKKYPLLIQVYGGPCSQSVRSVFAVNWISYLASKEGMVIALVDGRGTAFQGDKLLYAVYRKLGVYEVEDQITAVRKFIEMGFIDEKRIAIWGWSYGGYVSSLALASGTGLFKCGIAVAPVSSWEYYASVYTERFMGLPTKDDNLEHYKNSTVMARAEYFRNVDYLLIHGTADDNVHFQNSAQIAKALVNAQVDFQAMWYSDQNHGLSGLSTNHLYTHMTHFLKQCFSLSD
# [19] = molecular target: Ubiquitin carboxy-terminal hydrolase 8 (Homo sapiens (Human)) (UniProt P40818)
# [20] = molecular target: DPP9 (Homo sapiens (Human)) (UniProt Q86TI2)
# [21] = molecular target: Ubiquitin carboxy-terminal hydrolase L1 (Homo sapiens (Human)) (UniProt P09936)
# [22] = molecular target: Ataxin3 (Homo sapiens (Human)) (UniProt P54252)
# Chain of Ataxin3 (Homo sapiens (Human)) (P54252 whole entry): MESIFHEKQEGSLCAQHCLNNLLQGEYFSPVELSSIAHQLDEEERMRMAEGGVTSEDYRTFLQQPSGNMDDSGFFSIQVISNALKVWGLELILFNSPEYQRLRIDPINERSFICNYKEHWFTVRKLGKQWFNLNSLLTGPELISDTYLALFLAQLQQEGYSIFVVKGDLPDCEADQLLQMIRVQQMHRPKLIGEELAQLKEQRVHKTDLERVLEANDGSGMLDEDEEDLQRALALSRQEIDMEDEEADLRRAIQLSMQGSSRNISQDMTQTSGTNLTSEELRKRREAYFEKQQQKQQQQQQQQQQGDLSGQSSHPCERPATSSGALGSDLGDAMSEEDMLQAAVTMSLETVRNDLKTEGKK
# [23] = molecular target: T5, Caspase-7 (Homo sapiens (Human)) (UniProt P55210)
# T5 sequence: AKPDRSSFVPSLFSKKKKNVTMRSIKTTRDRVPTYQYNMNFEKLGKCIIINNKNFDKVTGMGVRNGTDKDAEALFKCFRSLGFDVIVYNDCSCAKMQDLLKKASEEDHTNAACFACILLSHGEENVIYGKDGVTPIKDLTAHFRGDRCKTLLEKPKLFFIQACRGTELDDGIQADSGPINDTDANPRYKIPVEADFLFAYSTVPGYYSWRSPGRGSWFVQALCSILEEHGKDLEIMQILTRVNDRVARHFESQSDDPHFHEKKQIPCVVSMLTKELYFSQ
# [24] = molecular target: Beta secretase (Homo sapiens (Human)) (UniProt P56817)
# [25] = molecular target: Matrix metalloprotease 2 (Homo sapiens (Human)) (UniProt P08253)
# Chain of Matrix metalloprotease 2 (Homo sapiens (Human)) (P08253 110-660): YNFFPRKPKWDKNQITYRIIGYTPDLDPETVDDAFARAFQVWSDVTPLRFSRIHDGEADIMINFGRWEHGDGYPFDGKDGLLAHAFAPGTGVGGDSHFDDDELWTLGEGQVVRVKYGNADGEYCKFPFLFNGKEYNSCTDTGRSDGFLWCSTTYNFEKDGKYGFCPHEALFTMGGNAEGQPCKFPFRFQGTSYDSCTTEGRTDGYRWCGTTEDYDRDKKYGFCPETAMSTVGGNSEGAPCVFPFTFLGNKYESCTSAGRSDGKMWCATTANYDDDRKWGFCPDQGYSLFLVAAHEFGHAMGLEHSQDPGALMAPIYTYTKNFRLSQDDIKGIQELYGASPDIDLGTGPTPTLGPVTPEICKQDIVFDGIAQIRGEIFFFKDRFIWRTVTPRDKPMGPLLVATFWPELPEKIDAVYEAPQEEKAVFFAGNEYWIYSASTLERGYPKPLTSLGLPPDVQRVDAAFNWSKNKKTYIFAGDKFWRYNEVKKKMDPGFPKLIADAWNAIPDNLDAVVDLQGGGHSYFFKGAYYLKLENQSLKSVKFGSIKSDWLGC
# [26] = molecular target: T6, Caspase-6 (Homo sapiens (Human)) (UniProt P55212)
# T6 sequence: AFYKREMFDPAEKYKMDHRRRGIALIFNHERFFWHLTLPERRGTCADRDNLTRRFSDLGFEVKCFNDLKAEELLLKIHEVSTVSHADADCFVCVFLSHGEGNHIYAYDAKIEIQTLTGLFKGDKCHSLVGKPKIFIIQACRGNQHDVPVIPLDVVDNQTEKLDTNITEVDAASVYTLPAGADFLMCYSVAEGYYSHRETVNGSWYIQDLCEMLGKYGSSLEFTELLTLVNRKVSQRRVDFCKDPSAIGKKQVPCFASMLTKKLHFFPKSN
# [27] = molecular target: Ubiquitin carboxy-terminal hydrolase 7 (Homo sapiens (Human)) (UniProt Q93009)
# Chain of Matrix metalloprotease1 (Homo sapiens (Human)) (P03956 100-469): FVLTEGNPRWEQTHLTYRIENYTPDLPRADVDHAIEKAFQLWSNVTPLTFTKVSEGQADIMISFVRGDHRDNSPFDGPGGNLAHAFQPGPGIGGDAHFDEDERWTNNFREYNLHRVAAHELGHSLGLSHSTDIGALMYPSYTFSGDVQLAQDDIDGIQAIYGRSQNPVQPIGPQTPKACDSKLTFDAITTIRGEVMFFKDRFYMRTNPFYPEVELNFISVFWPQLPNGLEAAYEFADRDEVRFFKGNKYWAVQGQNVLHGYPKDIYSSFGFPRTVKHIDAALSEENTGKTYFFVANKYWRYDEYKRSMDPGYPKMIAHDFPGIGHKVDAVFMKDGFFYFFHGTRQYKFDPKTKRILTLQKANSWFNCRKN
Percentage inhibition (%) at 10 µM [1],Percentage inhibition (%) at 10 µM [2],Percentage inhibition (%) at 10 µM [3],Percentage inhibition (%) at 10 µM [4],Percentage inhibition (%) at 10 µM [5],Percentage inhibition (%) at 10 µM [6],Percentage inhibition (%) at 10 µM [7],Percentage inhibition (%) at 10 µM [8],Percentage inhibition (%) at 10 µM [9],Percentage inhibition (%) at 10 µM [10],Percentage inhibition (%) at 10 µM [11],Percentage inhibition (%) at 10 µM [12],Percentage inhibition (%) at 10 µM [13],Percentage inhibition (%) at 10 µM [14],Percentage inhibition (%) at 10 µM [15],Percentage inhibition (%) at 10 µM [16],Percentage inhibition (%) at 10 µM [17],Percentage inhibition (%) at 1 µM [18],Percentage inhibition (%) at 10 µM [19],Percentage inhibition (%) at 10 µM [20],Substance,other results
-1%,-7%,-1%,-2%,-1%,-2%,11%,2%,-3%,-1%,-7%,-6%,0%,2%,2%,-23%,0%,97%,1%,-5%,Hex-[Cys(tMeBn(DOTA-AET))-Pro-Pro-Thr-Gln-Phe-Cys]-OH (peptide),Percentage inhibition (%) at 10 µM [21]: 4%; Percentage inhibition (%) at 10 µM [22]: -1%; Percentage inhibition (%) at 10 µM [23]: -7%; Percentage inhibition (%) at 10 µM [24]: 7%; Percentage inhibition (%) at 10 µM [25]: -2%; Percentage inhibition (%) at 10 µM [26]: -3%; Percentage inhibition (%) at 10 µM [27]: 1%
-18%,2%,3%,8%,-2%,46%,5%,5%,0%,5%,-3%,6%,-4%,36%,2%,18%,15%,98%,6%,0%,Hex-[Cys(tMeBn(DOTA-PP))-Pro-Pro-Thr-Gln-Phe-Cys]-Asp-NH2 (peptide),Percentage inhibition (%) at 10 µM [21]: 4%; Percentage inhibition (%) at 10 µM [22]: 10%; Percentage inhibition (%) at 10 µM [23]: -3%; Percentage inhibition (%) at 10 µM [24]: -5%; Percentage inhibition (%) at 10 µM [25]: 3%; Percentage inhibition (%) at 10 µM [26]: -1%; Percentage inhibition (%) at 10 µM [27]: 5%
